14 sequences from the supplement of paper PMC12764529 can be followed below.

Data set [1] can be described thus: folding stability dG unfold (combined trypsin and chymotrypsin); higher = more stable. The method in brief: (§1)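 Unfolding free energy was derived, per protease or combined, against a sequence-predicted unfolded-state K50 and a shared folded-state K50, starting from K50 inferred by Bayesian fitting of sequencing counts. Digestion with trypsin and chymotrypsin was carried out on designed mini-proteins under 80 residues without cysteine in a PA-tagged cDNA display construct. Only designs with AlphaFold2 dimer inter-PAE above 15 were kept.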

Data set [2] can be described thus: folding stability dG unfold from chymotrypsin proteolysis; higher = more stable. The method, boiled down:
as §1

The nature of data set [3]: folding stability dG unfold from trypsin proteolysis; higher = more stable. The method, boiled down: as §1

± gives the half width of the 95% confidence interval.

Take “SAGKPKPEETVTLVLEVPKENPIKVEELFEKLPDVKFVEVKVEPLPDDRVLITITVLPEDVEKIKKALGSAG [r5_554_TrMRF]”: the figures for the “folding stability dG unfold” value in data set [1], in data set [2] and in data set [3] were 2.76 ± 0.13 kcal/mol, 2.13 ± 0.069 kcal/mol and 3.58 ± 0.28 kcal/mol, respectively.

With “SAGKPKVKVETVTIEVDGKKIKIEVVELENGEKLVRVEVFDENGELVETKTVTLEELKKLLEKAGIEVSAGG [r19_90_TrROS_Hall]”, the “folding stability dG unfold” value was 1.84 ± 0.28 kcal/mol in data set [1], 2.2 ± 0.16 kcal/mol in data set [2] and 1.64 ± 0.1 kcal/mol in data set [3].

For the sequence “SAGKPVKVTLNVVRLPGTGELVVFAEITYPDGSTAYAVARADLATGTVHVKLFDPNGKLLAELTVTLKPSAG [r14_524_TrMRF]”, the “folding stability dG unfold” value worked out at 4.4 ± 0.096 kcal/mol in data set [1], 4.62 ± 0.11 kcal/mol in data set [2] and 3.64 ± 0.2 kcal/mol in data set [3].

Take “SAGKRMPVEEIANELAKEFPPGQTREVPIRNEDGGEWITLTVYHPNGKPVWKITIRPDGEIEVEWVPLSAGG [r19_0_TrROS]”: the entries for the “folding stability dG unfold” value in data set [1], in data set [2] and in data set [3] were 1.94 ± 0.088 kcal/mol, 2.31 ± 0.024 kcal/mol and 0.889 ± 0.042 kcal/mol, respectively.

On to “SAGKSIKILITTEKEEEAKKLAEEIKKELPKLGYKVEVYIMPKEEFEKFLKEFVVPEPDGKLVKVDLSSAGG [r19_187_TrMRF]”, for which the “folding stability dG unfold” value came out at 1.48 ± 0.19 kcal/mol in data set [1], 2.09 ± 0.1 kcal/mol in data set [2] and 0.482 ± 0.056 kcal/mol in data set [3].

Consider “SAGKSKPILVEITFPNGEKAKVLAVEFPNTVYVFAVVTSKDGSKYLVEAIIDVSPTKIKIFTKSYPLESAGG [r19_385_TrMRF]”, for which the “folding stability dG unfold” value in data set [1] stood at 3.64 ± 0.081 kcal/mol; in data set [2], 4.1 ± 0.043 kcal/mol; in data set [3], 2.56 ± 0.1 kcal/mol.

Turning to “SAGKTIVLPPEMTKEQIEALAKELAEEEGFEKVELVEYDEEKGVFTVKVKVDGKEKTIEIKIVSPEELESAG [r5_912_TrROS_Hall]”, the “folding stability dG unfold” value is 2.3 ± 0.084 kcal/mol in data set [1], 2.622 ± 0.022 kcal/mol in data set [2] and 1.62 ± 0.046 kcal/mol in data set [3].

“SAGKTIVVPTEEEAEKLAKELAEETGKEVEIVKVEKEKKKDGYEVYTIKVKLKDNNKTIEIKIVRPKEKSAG [r5_173_TrROS_Hall]”: the figures for the “folding stability dG unfold” value in data set [1], in data set [2] and in data set [3] were 1.55 ± 0.25 kcal/mol, 1.47 ± 0.11 kcal/mol and 1.52 ± 0.17 kcal/mol, respectively.

With “SAGKTRTINFPGFQIQVQRDPDGKKEITIMFDNPEQRKQMIEQNPFLREFIEWAEKDGLKVEIHVMPPKSAG [r14_873_TrROS]”, the entries for the “folding stability dG unfold” value in data set [1], in data set [2] and in data set [3] were 2.06 ± 0.18 kcal/mol, 2.04 ± 0.15 kcal/mol and 1.85 ± 0.071 kcal/mol, respectively.

For the sequence “SAGKTVTKTKTEYEYKDGKLEKKKVKTETIEPKPKIEVKEVKITLKDGSEVTAKIVSIDPKTKKVVIELSAG [r5_735_TrROS_Hall]”, the entries for the “folding stability dG unfold” value in data set [1], in data set [2] and in data set [3] were 0.0452 ± 0.23 kcal/mol, -0.0238 ± 0.075 kcal/mol and 0.26 ± 0.099 kcal/mol, respectively.

Consider “SAGKVKLTIMIHPMRKNGKPRYYVMVKIEIPGGPKAEIMFPFDSPEQAKNLLEDLGLKVEPEDISIMRWSAG [r5_233_TrROS]”, for which the “folding stability dG unfold” value in data set [1] came out at 1.94 ± 0.051 kcal/mol; in data set [2] it was 1.94 ± 0.12 kcal/mol; in data set [3] it was 1.89 ± 0.022 kcal/mol.

In the case of “SAGLIKIERTGDKLTITIPLKGAPPGAQVRIMVFTDGKVEEHWIPPGKEVEITIPPDNIHIFIQIYPPDSAG [r5_867_TrROS]”, the “folding stability dG unfold” value in data set [1] is 3.33 ± 0.32 kcal/mol; in data set [2], 3.15 ± 0.14 kcal/mol; in data set [3] it was 3.22 ± 0.38 kcal/mol.

As to “SAGLKEIAKKLGLSEEKIKIKEIKKKKKVVYDKKTKKKYEKEEIVIKIEIVDPKTKKKYEIEIPLEEIKSAG [r5_517_TrROS_Hall]”, the “folding stability dG unfold” value is 2.55 ± 0.22 kcal/mol in data set [1], 2.63 ± 0.18 kcal/mol in data set [2] and 2.28 ± 0.18 kcal/mol in data set [3].

For “SAGLKFSITKAEWENGYLTVKVMVTGPDGQSQPFTITIRIKPVPKPPPKMTEEKDPNGKKKWEYKDPDSAGG [r19_172_TrROS]”, the “folding stability dG unfold” value in data set [1] is 2.47 ± 0.24 kcal/mol; in data set [2] it was 2.6 ± 0.072 kcal/mol; in data set [3], 2.26 ± 0.11 kcal/mol.
